Experimental data reported in paper PMC11702601.

Assays:
Experiment in all cases: MST
[1] = biological target: T2 gp009-6×His (phage T2)
[2] = biological target: T2 gp006-6×His (phage T2)
[3] = biological target: T2 gp057-6×His (phage T2)
[4] = biological target: T2 gp006^I20A-6×His (phage T2)

Substance: bNACHT11 (natural protein)
- Kd [1]: 269 nM
- Kd [2]: 80 nM
- Kd [3]: 149 nM
- Kd [4]: 351 nM
